{"source": "patent US20230374147A1", "about": "(HUMMINGBIRD BIOSCIENCE PTE, published 2023)", "binders": {"B1": {"name": "J6M0 (antibody, V domains shown)", "VH": "QVQLVQSGAEVKKPGSSVKVSCKASGGTFSNYWMHWVRQAPGQGLEWMGATYRGHSDTYYNQKFKGRVTITADKSTSTAYMELSSLRSEDTAVYYCARGAIYDGYDVLDNWGQGTLVTVSS", "VL": "DIQMTQSPSSLSASVGDRVTITCSASQDISNYLNWYQQKPGKAPKLLIYYTSNLHSGVPSRFSGSGSGTDFTLTISSLQPEDFATYYCQQYRKLPWTFGQGTKLEIK", "notes": "also called J6M0-hIgG1; anti-BCMA"}}, "key": {"[1]": {"biological_target": "T1, His-tagged cynomolgous macaque BCMA (Acro Biosystems, BCA-C52H7) (cynomolgus macaque, UniProt Q02223 1-54 (human entry))", "T1 construct": "Bought protein; also called cyno BCMA; CyBCMA; not shown: His tag", "assay": "ELISA, coated Cyno BCMA-His"}, "[2]": {"biological_target": "T2, His-tagged human BCMA (Acro Biosystems, Cat. #BCA-H522y) (human, UniProt Q02223 1-54)", "T2 construct": "also called huBCMA; P1; not shown: His tag", "T2 sequence": "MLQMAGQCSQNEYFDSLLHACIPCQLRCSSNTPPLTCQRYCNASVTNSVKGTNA", "assay": "ELISA, coated His-tagged human BCMA"}, "[3]": {"biological_target": "T1, His-tagged cynomolgous macaque BCMA …", "assay": "BLI, His-tagged cynomolgus BCMA on HIS1K tip"}, "[4]": {"biological_target": "T3, cynomolgous macaque BCMA expressed on CHOK1 cells", "T3 construct": "also called cyno BCMA on cells", "assay": "flow cytometry, CHOK1 cells transiently expressing cynomolgus BCMA"}, "[5]": {"biological_target": "T2, His-tagged human BCMA (Acro Biosystems, …)", "assay": "ELISA, coated His-tagged human BCMA", "remark": "listed apart in the source"}, "[6]": {"biological_target": "T4, His-tagged mouse BCMA (Acro Biosystems, BCA-M52H3) (mouse, UniProt O88472 1-49)", "T4 construct": "Bought protein; not shown: His tag", "T4 chain": "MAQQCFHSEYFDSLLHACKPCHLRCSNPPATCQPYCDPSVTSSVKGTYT", "assay": "BLI, His-tagged mouse BCMA on HIS1K tip"}, "[7]": {"biological_target": "T2, His-tagged human BCMA (Acro Biosystems, …)", "assay": "BLI, His-tagged human BCMA on HIS1K tip, no APRIL; R2 0.9957"}, "[8]": {"biological_target": "T1, His-tagged cynomolgous macaque BCMA …", "assay": "BLI, His-tagged cynomolgus BCMA on HIS1K tip; R2 0.9963"}, "[9]": {"biological_target": "T2, His-tagged human BCMA (Acro Biosystems, …)", "assay": "BLI, His-tagged human BCMA on HIS1K tip"}, "[10]": {"biological_target": "T2, His-tagged human BCMA (Acro Biosystems, …)", "assay": "BLI, His-tagged human BCMA on HIS1K tip; R2 0.9957"}, "[11]": {"biological_target": "T5, human TACI expressed on cells (human, UniProt O14836 1-293)", "T5 construct": "also called wildtype human TACI", "T5 sequence": "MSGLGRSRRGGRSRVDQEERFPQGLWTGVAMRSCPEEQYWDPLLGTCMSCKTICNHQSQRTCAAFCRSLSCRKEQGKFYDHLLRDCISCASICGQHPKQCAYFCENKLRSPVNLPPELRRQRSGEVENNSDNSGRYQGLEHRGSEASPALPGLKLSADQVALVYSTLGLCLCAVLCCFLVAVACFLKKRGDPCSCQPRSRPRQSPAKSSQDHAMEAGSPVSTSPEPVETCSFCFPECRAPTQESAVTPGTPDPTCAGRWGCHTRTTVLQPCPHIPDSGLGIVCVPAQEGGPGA", "assay": "flow cytometry, HEK 293 cells transiently expressing human TACI"}, "[12]": {"biological_target": "T6, Human HER3-His (Sino Biological, 10201-H08H) (human, UniProt P21860 20-643)", "T6 construct": "Specificity control; also called Human HERS-His", "assay": "ELISA, coated Human HER3-His"}, "[13]": {"biological_target": "T2, His-tagged human BCMA (Acro Biosystems, …)", "assay": "competition ELISA: His-tagged human BCMA binding to coated APRIL-Fc in the presence of the antibody"}, "[14]": {"biological_target": "T7, human BCMA expressed on cells (human, UniProt Q02223 1-184)", "T7 construct": "the cell line is named under assay; also called wildtype human BCMA", "T7 sequence": "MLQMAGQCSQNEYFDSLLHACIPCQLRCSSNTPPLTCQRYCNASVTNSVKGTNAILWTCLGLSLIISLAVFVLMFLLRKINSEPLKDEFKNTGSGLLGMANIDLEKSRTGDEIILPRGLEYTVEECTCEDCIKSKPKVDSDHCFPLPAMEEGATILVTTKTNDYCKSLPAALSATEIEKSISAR", "assay": "flow cytometry, H929 cells (BCMA+)"}, "[15]": {"biological_target": "T8, BCMA Mut (human, UniProt Q02223 1-184)", "T8 construct": "Expressed on HEK293T cells; also called human BCMA comprising the substitutions Y13A, D15A, L17G and L18G", "T8 chain": "T7 sequence with Y13A, D15A, L17G, L18G", "assay": "flow cytometry on HEK293T cells expressing BCMA Mut"}, "[16]": {"biological_target": "T9, Human BCMA-His (Sino Biological, 10620-H08H) (human, UniProt Q02223 1-54)", "T9 construct": "not shown: His tag", "T9 sequence": "T2 sequence", "assay": "ELISA, coated Human BCMA-His"}, "[17]": {"biological_target": "T2, His-tagged human BCMA (Acro Biosystems, …)", "assay": "competition ELISA: His-tagged human BCMA binding to coated APRIL-Fc in the presence of the antibody", "remark": "listed apart in the source"}, "[18]": {"biological_target": "T1, His-tagged cynomolgous macaque BCMA …", "assay": "ELISA, coated His-tagged cynomolgus BCMA"}, "[19]": {"biological_target": "T7, human BCMA expressed on cells", "assay": "flow cytometry, H929 cells (BCMA-expressing)"}}, "note": "Changes are numbered by the printed parent chain."}
{"binder": "B1", "values": [{"measurement": "EC50", "setting": "[1]", "result": 15, "unit": "pM"}, {"measurement": "EC50", "setting": "[2]", "result": 44, "unit": "pM"}, {"measurement": "Cyno BCMA response", "setting": "[3]", "result": 2.16}, {"measurement": "binding result", "setting": "[4]", "result": "binds"}, {"measurement": "EC50 (read off the curve)", "setting": "[5]", "result": "~0.007", "unit": "µg/mL"}, {"measurement": "Mouse BCMA response", "setting": "[6]", "result": 0.0423}, {"measurement": "Kd", "setting": "[7]", "result": "< 1", "unit": "pM"}, {"measurement": "Kd", "setting": "[8]", "result": "< 1", "unit": "pM"}, {"measurement": "Human BCMA response", "setting": "[9]", "result": 2.53}, {"measurement": "Kd", "setting": "[10]", "result": "< 1", "unit": "pM"}, {"measurement": "binding result", "setting": "[11]", "result": "no binding (tested: 10 ug/ml)"}, {"measurement": "binding result", "setting": "[12]", "result": "no binding (tested: log M about -7.7 (3 ug/ml per paragraph 742))"}, {"measurement": "IC50 (read off the curve)", "setting": "[13]", "result": "~0.5", "unit": "µg/mL"}, {"measurement": "EC50", "setting": "[14]", "result": 1770, "unit": "pM"}, {"measurement": "binding result", "setting": "[15]", "result": "binds"}, {"measurement": "EC50", "setting": "[16]", "result": 18, "unit": "pM"}, {"measurement": "IC50", "setting": "[17]", "result": 920, "unit": "pM"}, {"measurement": "EC50 (read off the curve)", "setting": "[18]", "result": "~0.01", "unit": "µg/mL"}, {"measurement": "EC50 (read off the curve)", "setting": "[19]", "result": "~1", "unit": "µg/mL"}]}
